Assay results published in paper PMC5095912.
Several values for one entry are separate records, joined by “and”; a condition that tells them apart may be missing. Identical values can stand only once.

Biological target: PKA regulatory subunit RIIα (UniProt P12367)
Test: native MS; components mixed at equimolar (1:1) ratio in 200 mM NH4OAc, equilibrated at least 10 min at room temperature; nESI on a Synapt G2-Si, 2-5 uM sample; single proteins sprayed alone too; some C + R samples preincubated with staurosporine, K252a or AT13148 before PKI

- stoichiometry N: 3 and 4 and 2
Substance: PKA regulatory subunit RIIα (from UniProt P12367 1-401) (natural protein)
